Measurements published in patent US6730503B1 (Roche Vitamins Inc., priority 1996, dated 2004).
Values joined by “and” are separate entries in the source; they are usually repeats but may differ in a detail not shown here. Identical values can stand only once. “Also recorded” adds a separate entry of the source.

Legend:
[1] = Products of enzyme reactions with purified enzymes, identified by TLC and/or HPLC; assay type: biochemical
Experimental: Products formed from a substrate in the reaction with Enzyme A, Enzyme A′, Enzyme A″ or Enzyme B were analyzed by thin layer chromatography (TLC) and/or high performance liquid chromatography (HPLC) with authentic compounds. […] Similarly to the reactivity for L-sorbosone, D-glucosone can be converted to 2KD by all of above mentioned AADHs. A group enzymes can produce 2KD from D-fructose whose possible direct product is D-glucosone. […]
Enzyme reactions with purified Enzyme A or Enzyme B and various substrates were performed as described in Example 11.

[2] = Optimal pH, PMS-DCIP assay in buffers of various pH; assay type: biochemical
Experimental: The Enzymes A″ and B have a relatively wide pH range toward a lower pH, compared with the Enzymes A and A′.
The enzyme activity was assayed by the PMS-DCIP spectrophotometric assay using various pH buffers. The buffers were 50 mM Tris-malate-NaOH, pH 6.0, 6.5, 7.0, 7.5, 8.0 and 8.5; 50 mM glycine-NaOH, pH 9.0 and 9.5. The extinction coefficients of DCIP at pH 6.0, 6.5, 7.0, 7.5, 8.0, 8.5, 9.0 and 9.5 were taken as 10.8, 13.2, 14.5, 14.9, 15.0, 15.1, 15.1 and 15.1, respectively. […] The Enzymes A″ and B had relatively wide pH range toward lower pH, compared with the Enzymes A and A′.

[3] = pH stability, 3 hours at 25° C., residual activity by PMS-DCIP assay; assay type: physicochemical; details: relative to no incubation at pH 8.0
Experimental: Enzymes A, A′, A″ and B were incubated in buffers of various pH-values for 3 hours at 25° C. and the residual activities were assayed and expressed as relative values against that obtained by no incubation at pH 8.
Table 3 indicates the results of pH-stabilities of the enzymes. The enzyme (about 0.01 mg/ml) was incubated with 50 mM buffer containing 5% sucrose, 0.2 M NaCl, and 5 mM CaCl2 at 25° C. for 3 hours and assayed by PMS-DCIP spectrophotometric method. The buffers were Na-acetate, pH4 and 5, Tris-malate-NaOH, pH 6, 7 and 8, glycine-NaOH, pH 9 and 10. The values in the table are expressed as relative activity against that obtained by no incubation at pH 8.0.

[4] = Oxidation product of AADH clones by resting cell reaction followed by TLC analysis; assay type: cell-based, P. putida
Source text: Enzyme A gene was originally cloned as a cosmid clone of p24D4 which has about 25 kb insert in EcoRI site of pVK100. Then, it was further subcloned to use as an Enzyme A gene cassette. The 2.7 kb EcoRV fragment which includes ORF of Enzyme A gene with about 500 bp of non-coding regions at the both ends was excised from 3.4 kb NruI fragment, which was isolated from p24D4 in M13 mp18, and was ligated to HindIII site of pUC18 with HindIII linker ([…]). The resulting plasmid was designated pSSA202. Enzyme A gene cassette (2.7 kb HindIII fragment) was then inserted at HindIII site of pVK102 to produce pSSA102R. The plasmid pSSA102R was introduced into nalidixic acid resistant P. putida [ATCC 21812] by a conjugal mating method as described in Example 1-(1). The transconjugant of P. putida carrying pSSA102R was selected on MB agar medium containing 50 μg/ml nalidixic acid and 10 μg/ml tetracycline (MNT agar medium) and subjected to a mini-resting cell reaction. […] The reaction mixture was assayed with TLC and 2KGA was identified as the product, while no 2KGA was observed by the same resting cell reaction with the host, nalidixic acid resistant P. putida [ATCC 21812].

B1: Enzyme B: recombinant AADH of G. oxydans DSM No. 4025, amino acid sequence SEQ ID NO 8, plasmid pSS31/pSSB103R (protein)
chain: MNPTTLLRTSAAVLLLTAPAAFAQVTPITDELLANPPAGEWINYGRNQENYRHSPLTQITADNVGQLQLVWARGMEAGAVQVTPMIHDGVMYLANPGDVIQALDAQTGDLIWEHRRQLPAVATLNAQGDRKRGVALYGTSLYFSSWDNHLIALDMETGQVVFDVERGSGEDGLTSNTTGPIVANGVIVAGSTCQYSPYGCFISGHDSATGEELWRNHFIPQPGEEGDETWGNDFEARWMTGVWGQITYDPVTNLVFYGSTGVGPASETQRGTPGGTLYGTNTRFAVRPDTGEIVWRHQTLPRDNWDQECTFEMMVANVDVQPSAEMEGLRAINPNAATGERRVLTGAPCKTGTMWSFDAASGEFLWARDTNYTNMIASIDETGLVTVNEDAVLKELDVEYDVCPTFLGGRDWSSAALNPDTGIYFLPLNNACYDIMAVDQEFSALDVYNTSATAKLAPGFENMGRIDAIDISTGRTLWSAERPAANYSPVLSTAGGVVFNGGTDRYFRALSQETGETLWQARLATVATGQAISYELDGVQYIAIGAGGLTYGTQLNAPLAEAIDSTSVGNAIYVFALPQ
modifications: Gluconobacter oxydans; SIGNAL (1)..(23)
Product ([1]; substrate D-Gluconic acid): 5-keto-D-gluconic acid and 5-Keto-D-gluconic acid | Product ([1]; substrate D-Glucose): D-gluconate; also recorded: D-Gluconic acid | Product ([1]; substrate D-Mannitol): D-Fructose | Product ([1]; substrate D-Mannoic acid): 5-keto-D-mannoic acid and 5-Keto-D-mannoic acid | Product ([1]; substrate D-Sorbitol): L-Sorbose | Product ([1]; substrate Glycerol): Dihydroxyacetone | Product ([1]; substrate L-Idose): L-Idonic acid | Product ([1]; substrate L-Sorbosone): 2KGA | Relative activity (optimal pH) ([2]; assay pH 6.0, pH 8.0 = 100): 21.0% | Relative activity (optimal pH) ([2]; assay pH 6.5, pH 8.0 = 100): 51.6% | Relative activity (optimal pH) ([2]; assay pH 7.0, pH 8.0 = 100): 61.6% | Relative activity (optimal pH) ([2]; assay pH 7.5, pH 8.0 = 100): 75.3% | Relative activity (optimal pH) ([2]; assay pH 8.0): 100.0% | Relative activity (optimal pH) ([2]; assay pH 8.5, pH 8.0 = 100): 62.2% | Relative activity (optimal pH) ([2]; assay pH 9.0, pH 8.0 = 100): 8.0% | Relative activity (optimal pH) ([2]; assay pH 9.5, pH 8.0 = 100): 0.0% | Relative activity (pH stability) ([3]; incubated at pH 4.0, 3 hours): 25.2% | Relative activity (pH stability) ([3]; incubated at pH 5.0, 3 hours): 56.1% | Relative activity (pH stability) ([3]; incubated at pH 6.0, 3 hours): 100.9% | Relative activity (pH stability) ([3]; incubated at pH 7.0, 3 hours): 101.9% | Relative activity (pH stability) ([3]; incubated at pH 8.0, 3 hours): 114.0% | Relative activity (pH stability) ([3]; incubated at pH 9.0, 3 hours): 101.9% | Relative activity (pH stability) ([3]; incubated at pH 10.0, 3 hours): 85.5% | Relative activity (pH stability) ([3]; incubated at pH 11.0, 3 hours): 70.1% | Oxidation product of D-glucose [4]: *2Oxidation product of D-glucose by Enzyme B, and Enzyems [A and B] was D-gluconic acid. | Oxidation product of D-sorbitol [4]: L-sorbose | Oxidation product of L-sorbosone [4]: *4Oxidation product of L-sorbosone by Enzymes A, A′, A″, B, and [A and B] was 2KGA.
